Source: patent publication US20160334414A1 (BAXALTA, published 2016)

B1: anti-oxMIF antibody RAM9 (antibody, V domains shown)
VH: EVQLLESGGGLVQPGGSLRLSCAASGFTFSIYSMNWVRQAPGKGLEWVSSIGSSGGTTYYADSVKGRFTISRDNSKNTLYLQMNSLRAEDTAVYYCAGSQWLYGMDVWGQGTTVTVSS
VL: DIQMTQSPSSLSASVGDRVTITCRSSQRIMTYLNWYQQKPGKAPKLLIFVASHSQSGVPSRFRGSGSETDFTLTISGLQPEDSATYYCQQSFWTPLTFGGGTKVEIKR
notes: also called biotinylated RAM9

What was measured:
[1] = molecular target: T1, oxMIF in human tissue cryosections (human, UniProt P14174 2-115); experiment: IHC on infiltrating ductal carcinoma of the pancreas, RAM9 detected by rabbit anti-RAM9 54-5 or 68-1
T1 construct: also called oxidized MIF
T1 sequence (P14174 2-115 limits assumed): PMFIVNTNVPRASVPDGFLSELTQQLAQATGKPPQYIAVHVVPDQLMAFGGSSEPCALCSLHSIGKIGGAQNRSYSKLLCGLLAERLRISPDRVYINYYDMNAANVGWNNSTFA
Procedure: (§1) The slides were prepared according to state of the art techniques known to experts, either fresh frozen or OCT embedded, sectioned at 10 μm and stored at <=−80° C. after sectioning. All following steps were done at ambient temperature. The cryo-sections were air dried for 30 min and unspecific binding was blocked with blocking buffer (BB: 20% Normal Goat Serum/2% Bovine Serum Albumin/0.2% Fish Gelatine in TBS) for 15 min. The sections were then incubated without primary antibody or with anti-oxMIF antibody RAM9 in primary antibody dilution buffer (PADB: 2% Bovine Serum Albumin/0.2% Fish Gelatine in TBS) at a concentration of 2 μg/ml for 60 min. After washing in TBS, the specimen was fixed in 4% PBS buffered formaldehyde for 20 min. Excess formaldehyde was removed by washing in TBS for 5-10 min, Endogenous peroxidases were blocked by incubating the tissue sections in 0.3% H₂O₂ in methanol for 20 min. Excess methanol/H₂O₂ was removed by washing in TBS for 5-10 min. Detection of was done by incubating the tissue sections with anti-idiotypic rabbit monoclonal antibodies (68-1) diluted in PADS at 1 μg/ml for 30 min. Excess detection antibody was removed by washing in TBS for 5-10 min. The staining was done using SignalStain® Boost IHC Detection Reagent Rabbit for 30 min. Then the sections were extensively washed again 10 min in TBS. […]

[2] = molecular target: B1; experiment: secondary screening (neutralising) ELISA with finally purified antibody: inhibition of biotinylated RAM9 binding to coated human MIF, % recovery; the number stands in paragraph 159 without a unit, ng/ml is from the axis log c (ng/ml) of the figure
Procedure: Microplates were coated with human MIF (10 μg/ml PBS, 100 μl/well) and blocked with 250 μl 1.5% fish gelatin in PBS. Washing steps (4×250 μl of PBS per well) were included between the incubations. The samples were serially pre-diluted (in 1% fish gelatin/PBS) to 2× final dilution and mixed with an equivalent volume of biotinylated RAM9 (30 ng/ml) (equivalent to a 1:2 dilution, final concentration of RAM9 is therefore 15 ng/ml). These mixtures were allowed to form complexes for 30 min. […] Biotinylated RAM9 captured on the plate was detected using HRP coupled Streptavidin and TMB as chromogenic substrate. The absorbance of each well was related to the absorbance of the standard curve by linear regression and is expressed in ng/ml. The concentration calculated for biotinylated RAM9 in the sample is related to the calculated concentration of biotinylated RAM9 in the negative control (% recovery=(100%/measured concentration of biotinylated RAM9 in the negative control)×measured concentration of RAM9 in the sample). Half maximal binding inhibition (IC₅₀) by anti-RAM9 antibodies is calculated by blotting log concentration of rabbit anti-RAM9 against % recovery and non-linear 4-parameter curve fit with variable slope FIG. 4a.

[3] = molecular target: T1, oxMIF in human tissue cryosections; experiment: IHC on pancreas cryosections, 68-1 without the primary antibody RAM9
Procedure: as §1

Binder | binding result [1] | IC50 [2] [µg/mL] | binding result [3]
B1 | binds |  | 
monoclonal rabbit anti-RAM9 idiotypic antibody 54-5 (antibody, V domains shown, Rabbit IgG; also called anti-RAM9-54-5; Clone 54-5) VH: QSLEESGGDLVKPGASLTLTCTASGFSFSSGYDMCWVRQAPGKGLEWIACIYDGDVRTYYASWAKGRFTISRTSSTTMTLQMTGLTAADTATYLCARGASGYLSALYLWGPGTLVTVSS VL: DVVMTQTPASVSEPVGGTVTIKCQASFTITSNLAWYQQKPGQPPKLLIYGASNLASGVSSRFRGSGFGTEFTLTISDLECADAATYYCQCAAVLSSWTFGGGTEVVVKG |  | 0.00596 | 
monoclonal rabbit anti-RAM9 idiotypic antibody 68-1 (antibody, V domains shown, Rabbit IgG; also called anti-RAM9-68-1; Clone 68-1) VH: QEQLKESGGRLVKPGGTLTLTCKASGMDFNNYYYMAWVRQAPGKGLEWIGYISGGGSPYYASWAKGRFTISRTSTTVDLKMTSLTTEDTATYFCGRYTDINNGIDLWGPGTLVTVSS VL: DIVMTQTPSSVSEPVGGTVTINCQASENIYSNLAWYQQKPGQPPKLLIYLASSLTSGVPSRFKGSGSGTEFTLTISDLECADAAIYYCQNNYGDVRYGRNAFGGGTEVVVKG |  | 0.0296 | no binding (tested: 1 µg/ml)
